B1: PTPN9 (parent)
chain: LKGAFPARLKKVLIVGAPIWFRVP
B2: NCK2 (parent)
chain: YTGPSSSGRFAGREWYYGNVTRHQ

Variants of: B1
Experiment: protein stability index of a GFP-peptide fusion (GPS, HEK-293T) (PSI 1-6); higher = more stable
Details: c terminus: a fixed tail appended
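Further: lentivirally expressed fusions sorted by FACS into six bins by GFP to DsRed ratio, PSI derived from sequencing read proportions per bin multiplied by bin number.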

Protein stability index: each site, then its substitutions
R8: M 2.46
R22: D 1.87

Variants of: B2
Experiment: as above
Details: c terminus: a fixed tail appended

Protein stability index of substitutions, site by site:
G3: K 2.08 | I 2.07 | C 1.83 | R 2.17 | F 2.25 | S 2.04 | V 2.25 | Q 1.78 | W 2.99 | D 2.38 | A 2.23 | M 1.88 | H 1.71
G8: V 1.48 | Y 2.22 | S 2.22 | K 1.82 | A 1.25 | P 1.66 | F 2.04 | D 2.65 | N 1.71 | C 2.32 | Q 1.64 | L 3.02
F10: H 2 | N 2.13 | W 3.07 | E 2.95 | A 2.14 | C 1.44 | R 1.66 | I 1.89 | M 2.1 | V 2.13 | K 2.25 | Y 1.64 | Q 1.84 | T 2.2 | P 2.42 | G 2.35
R9: A 1.56 | M 3.36 | T 1.44 | V 1.85 | F 4.5 | I 3.13 | G 2.17 | N 1.69 | P 2.14 | E 2.5 | D 1.81 | Y 1.73
T2: K 2.27 | H 1.88 | C 2.06 | W 2.35 | Y 2.67 | L 1.7 | M 2.62 | P 3.3 | Q 1.5 | N 2.19 | R 1.67 | D 2.63 | S 1.37 | I 1.79 | V 2.32
H23: V 1.56 | I 2 | A 2.86 | C 1.07 | R 1.53 | K 2.33 | N 2.09 | L 2.81 | W 2.71 | S 1.79 | E 1.47 | Y 1.42 | G 1.88 | Q 1.31 | P 1.23
G12: I 2.66 | L 2.25 | E 1.49 | M 1.75 | C 2.81 | Q 2.09 | S 1.52 | D 2.44 | A 1.73 | N 3.14 | F 2.45 | K 2.32 | T 2.17 | P 1.42 | H 2.26 | R 1.98 | Y 2.1
Y17: V 1.89 | I 3.41 | N 1.59 | C 1.77 | K 1.91 | E 2.56 | S 2.44 | H 2.06 | G 2.83 | D 2.64 | T 1.36 | P 1.76
S6: C 1.69 | V 1.58 | D 1.91 | P 1.66 | N 1.78 | K 2.35 | F 3.15 | R 1.46 | M 2.35 | L 1.77 | Y 2.13 | G 1.54 | E 1.49 | T 1.93 | I 1.96 | H 2.15
S7: F 1.59 | P 2.18 | Q 2 | D 1.59 | V 1.46 | K 2.08 | H 1.85 | C 3.63 | E 2.32 | Y 2.02 | A 1.71 | M 1.58 | L 2.11 | R 1.82 | G 1.82 | N 1.47
G18: W 2.18 | L 3 | D 2.39 | E 1.44 | Y 2.03 | H 2.11 | T 1.04 | N 2.49 | R 2.44 | A 1.46 | S 2.99 | I 1.74 | C 2.35 | P 1.89 | Q 2.23
T21: V 2.64 | K 1.74 | Y 1.91 | G 1.45 | H 1.9 | N 2.4 | R 1.68 | M 2.29 | F 2.53 | S 2.13 | P 2.06 | C 2.37 | D 1.76 | L 2.34 | Q 1.78
W15: Y 2.23 | P 2.36 | K 2.22 | M 2.18 | A 2.49 | I 1.71 | L 1.77 | T 2.28 | E 2.52 | S 1.5 | F 2.19 | N 2.73 | V 2.36 | C 2.19 | H 2.66
S5: G 2.46 | W 3.56 | C 1.31 | R 2.03 | D 1.96 | I 2.13 | E 1.62 | N 1.95 | H 1.92 | L 2.56 | M 2.96 | Q 1.97 | T 1.86
V20: M 1.85 | G 2.57 | T 1.75 | F 1.59 | S 1.66 | L 1.88 | Q 1.83 | P 1.81 | R 2.42 | H 2.34 | I 2.71 | D 2.92 | N 1.98 | A 1.73
R22: G 2.62 | E 1.85 | M 1.79 | Y 2.17 | L 1.56 | F 2.65 | V 2.18 | Q 2.17 | P 1.14 | K 1.46 | C 1.7 | W 1.61
Y16: L 1.59 | S 2.33 | M 1.61 | W 2.29 | I 2.19 | G 1.81 | C 2.03 | D 2.27 | Q 2.37 | F 2.26 | H 2.03 | N 2.13 | R 1.98 | E 2.26
P4: F 1.82 | Y 3.08 | A 2.13 | R 3.61 | G 1.99 | H 2.48 | C 3.83 | K 2.4 | V 1.36 | M 2.37 | D 1.56 | E 2.31 | I 1.03 | L 1.64 | N 2.32
E14: H 2.69 | W 1.92 | V 2.56 | F 1.95 | Y 1.3 | D 1.4 | A 1.57 | Q 2.09 | I 1.58 | P 1.87 | L 1.68 | R 2.58 | M 1.64
Q24: T 1.18 | V 2.17 | W 2.83 | R 1.55 | A 1.96 | L 2.07 | M 2.44 | S 2.25 | C 2.61 | D 2.51 | N 1.62
N19: F 2.01 | G 1.63 | P 2.58 | T 2.44 | M 3.08 | K 1.38 | I 1.53 | R 2.53 | Q 3.23 | D 1.76 | A 2.09 | L 2.05 | H 2.12
Y1: C 2.01 | D 3.3 | I 2.08 | H 2.48 | M 2.57 | S 2.12 | A 3.25 | Q 2.96 | P 3.8 | T 3.08 | K 2.75
A11: Y 2.2 | L 2.02 | H 2 | S 2.2 | W 3.03 | D 1.95 | P 1.25 | Q 2.21 | R 1.85 | T 2.3 | N 2.34 | E 2.04
R13: W 2.01 | G 2.21 | I 2.64 | P 1.97 | Y 1.94 | A 1.61 | T 1.81 | M 1.63 | F 2.33 | H 2.75 | C 3.48 | S 2.03 | N 1.91 | D 2.09 | K 2.02

Source: the supplement of paper PMC10567573
